Substrate: O=C(CO)CO
Format: biochemical, Chromobacterium violaceum
Conditions: DHA as varied substrate; PLP-dependent

B1: Cv-ωTA (Chromobacterium violaceum ATCC 12472) (protein)
chain: MQKQRTTSQWRELDAAHHLHPFTDTASLNQAGARVMTRGEGVYLWDSEGNKIIDGMAGLWCVNVGYGRKDFAEAARRQMEELPFYNTFFKTTHPAVVELSSLLAEVTPAGFDRVFYTNSGSESVDTMIRMVRRYWDVQGKPEKKTLIGRWNGYHGSTIGGASLGGMKYMHEQGDLPIPGMAHIEQPWWYKHGKDMTPDEFGVVAARWLEEKILEIGADKVAAFVGEPIQGAGGVIVPPATYWPEIERICRKYDVLLVADEVICGFGRTGEWFGHQHFGFQPDLFTAAKGLSSGYLPIGAVFVGKRVAEGLIAGGDFNHGFTYSGHPVCAAVAHANVAALRDEGIVQRVKDDIGPYMQKRWRETFSRFEHVDDVRGVGMVQAFTLVKNKAKRELFPDFGEIGTLCRDIFFRNNLIMRACGDHIVSAPPLVMTRAEVDEMLAVAERCLEEFEQTLKARGLA
- Km: 15.2 ± 0.11 mM
- kcat: 1.61 ± 0.07 s⁻¹
- kcat/Km: 100 M⁻¹ s⁻¹

— paper PMC12666128, “Engineering ω-transaminase for efficient dihydroxyacetone transamination in serinol biosynthesis starting from methanol” (Synthetic and Systems Biotechnology, 2025)
